# From article PMC9044722
# What was measured:
# [1] = biological target: His-CRM1 recombinant protein (UniProt O14980); assay: SPR; without TLNC1; conditions: natural protein; chains chain; remark: other sources report otherwise
# [2] = biological target: His-CRM1 recombinant protein (UniProt O14980); assay: SPR; with TLNC1 (lncRNA); conditions: natural protein; chains chain; remark: other sources report otherwise
# UniProt O14980, sequence (O14980 whole entry): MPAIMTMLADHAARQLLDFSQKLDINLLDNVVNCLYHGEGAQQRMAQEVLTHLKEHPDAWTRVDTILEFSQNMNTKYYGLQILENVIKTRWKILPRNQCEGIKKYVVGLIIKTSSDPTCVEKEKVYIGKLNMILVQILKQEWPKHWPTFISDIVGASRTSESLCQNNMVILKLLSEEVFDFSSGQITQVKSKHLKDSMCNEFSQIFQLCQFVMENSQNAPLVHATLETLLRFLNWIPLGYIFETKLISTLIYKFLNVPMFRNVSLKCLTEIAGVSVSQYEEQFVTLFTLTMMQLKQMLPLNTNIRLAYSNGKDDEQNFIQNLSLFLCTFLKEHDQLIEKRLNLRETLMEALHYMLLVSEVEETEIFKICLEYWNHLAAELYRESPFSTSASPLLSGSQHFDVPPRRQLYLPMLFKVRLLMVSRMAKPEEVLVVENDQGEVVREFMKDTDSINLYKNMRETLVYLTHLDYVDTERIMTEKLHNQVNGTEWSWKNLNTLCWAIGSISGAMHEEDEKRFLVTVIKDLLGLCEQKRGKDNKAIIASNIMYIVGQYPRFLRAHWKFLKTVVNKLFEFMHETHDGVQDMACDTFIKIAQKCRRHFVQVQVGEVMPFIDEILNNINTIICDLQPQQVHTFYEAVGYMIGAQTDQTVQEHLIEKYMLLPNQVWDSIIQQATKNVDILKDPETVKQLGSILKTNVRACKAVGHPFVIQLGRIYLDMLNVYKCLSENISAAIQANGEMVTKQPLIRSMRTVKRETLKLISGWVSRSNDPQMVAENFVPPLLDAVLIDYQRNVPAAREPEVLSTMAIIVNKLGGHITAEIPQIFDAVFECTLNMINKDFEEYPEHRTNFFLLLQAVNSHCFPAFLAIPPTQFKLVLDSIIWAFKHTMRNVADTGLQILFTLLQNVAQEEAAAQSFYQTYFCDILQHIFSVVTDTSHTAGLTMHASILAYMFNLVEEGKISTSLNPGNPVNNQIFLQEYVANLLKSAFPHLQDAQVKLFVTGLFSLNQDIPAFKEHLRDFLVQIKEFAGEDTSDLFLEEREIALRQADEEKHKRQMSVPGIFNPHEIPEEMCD
substance,measurement,setting,value
"His-TPR recombinant protein, P12270 1-2363",Kd,[1],181 nM
same,Kd,[2],31.6 nM
